B1: Acid-sensing ion channel 3 (Rattus norvegicus (Rat)), O35240 (parent)
chain: MKPRSGLEEAQRRQASDIRVFASSCTMHGLGHIFGPGGLTLRRGLWATAVLLSLAAFLYQVAERVRYYGEFHHKTTLDERESHQLTFPAVTLCNINPLRRSRLTPNDLHWAGTALLGLDPAEHAAYLRALGQPPAPPGFMPSPTFDMAQLYARAGHSLEDMLLDCRYRGQPCGPENFTVIFTRMGQCYTFNSGAHGAELLTTPKGGAGNGLEIMLDVQQEEYLPIWKDMEETPFEVGIRVQIHSQDEPPAIDQLGFGAAPGHQTFVSCQQQQLSFLPPPWGDCNTASLDPDDFDPEPSDPLGSPRPRPSPPYSLIGCRLACESRYVARKCGCRMMHMPGNSPVCSPQQYKDCASPALDAMLRKDTCVCPNPCATTRYAKELSMVRIPSRASARYLARKYNRSESYITENVLVLDIFFEALNYEAVEQKAAYEVSELLGDIGGQMGLFIGASLLTILEILDYLCEVFQDRVLGYFWNRRSAQKRSGNTLLQEELNGHRTHVPHLSLGPRPPTTPCAVTKTLSASHRTCYLVTRL
partner: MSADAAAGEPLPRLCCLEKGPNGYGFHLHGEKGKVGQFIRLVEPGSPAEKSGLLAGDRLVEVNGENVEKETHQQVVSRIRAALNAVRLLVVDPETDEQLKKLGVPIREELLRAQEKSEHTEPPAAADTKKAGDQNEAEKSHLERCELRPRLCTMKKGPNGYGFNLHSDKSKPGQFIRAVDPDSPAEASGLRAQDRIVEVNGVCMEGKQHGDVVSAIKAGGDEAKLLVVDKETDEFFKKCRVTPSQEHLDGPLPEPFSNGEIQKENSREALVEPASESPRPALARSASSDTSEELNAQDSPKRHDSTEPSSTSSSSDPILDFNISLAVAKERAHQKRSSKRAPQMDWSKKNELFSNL

Variants of: B1
Conditions: with nhrf1_rat Nherf1, Q9JJ19

effect of a mutation on the interaction | Variant
decreasing interaction | S523G
increasing interaction | S523D
